Test results reported in paper PMC3214623.

Experiments:
[1] = target: human beta-2 microglobulin (human) (UniProt P61769); experiment: radioligand binding
[2] = target: porcine beta-2 microglobulin (pig) (UniProt Q07717); experiment: radioligand binding
Chain of UniProt Q07717 (Q07717 21-118): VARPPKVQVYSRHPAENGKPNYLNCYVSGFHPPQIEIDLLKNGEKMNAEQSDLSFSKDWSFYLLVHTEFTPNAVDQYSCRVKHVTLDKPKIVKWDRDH

Chain of UniProt P61769 (P61769 21-119): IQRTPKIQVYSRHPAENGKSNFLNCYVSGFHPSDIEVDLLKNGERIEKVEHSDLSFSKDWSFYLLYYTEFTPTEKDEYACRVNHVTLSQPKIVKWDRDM

HLA-A*11:01 heavy chain, residues 1-275 (HHH) (domain or fragment)
affinity (half-saturation of the heavy chain titration) [1]: 1.07 nM | affinity (half-saturation of the heavy chain titration) [2]: 2.11 nM

chimeric MHC-I heavy chain HHP (HLA-A*11:01 α1α2, SLA-1*0401 α3) (domain or fragment)
affinity (half-saturation of the heavy chain titration) [1]: 1.19 nM | affinity (half-saturation of the heavy chain titration) [2]: 0.774 nM
